Measurements from the supplement of paper PMC9112550, “Optimization of the antimicrobial peptide Bac7 by deep mutational scanning” (BMC Biology, 2022).

Each sequence was assayed on Escherichia coli TOP10 (assay: shrunken log2 fold change of peptide-encoding DNA abundance (4.5 h post-induction vs induction); higher = less antimicrobial activity (less host growth inhibition)). Conditions: time post-induction: 4.5 h; library: site-saturation at positions 5, 18, 19, 20.
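Note: peptides expressed intracellularly from a pBAD plasmid library in pooled LB shake-flask culture, induced with 0.3% L-arabinose, DNA abundance read by NGS, three biological replicates, DESeq2 with apeglm shrinkage.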

Point of comparison: RRIRQRPPRLPRPRPRPIYLPRP, “shrunken log2 fold change” value -0.163. Against it:
- RRIRPRPPRLPRPRPRPRSLPRP — higher, 0.14
- RRIRSRPPRLPRPRPRPPWHPRP — higher, 0.0809
- RRIRVRPPRLPRPRPRPQYPPRP — within 0.2 log units, -0.101
- RRIRTRPPRLPRPRPRPHPGPRP — higher, 0.106
- RRIRYRPPRLPRPRPRPTPWPRP — within 0.2 log units, -0.145
- RRIRNRPPRLPRPRPRPNADPRP — within 0.2 log units, -0.194
- RRIRCRPPRLPRPRPRPNYFPRP — lower, -0.763
- RRIRLRPPRLPRPRPRPVWWPRP — higher, 0.88
- RRIRWRPPRLPRPRPRPLTYPRP — lower, -0.423
- RRIRTRPPRLPRPRPRPKPIPRP — within 0.2 log units, 0.0226
- RRIRSRPPRLPRPRPRPRSDPRP — higher, 0.223
- RRIRFRPPRLPRPRPRPHKSPRP — lower, -0.396
- RRIRVRPPRLPRPRPRPEWHPRP — within 0.2 log units, -0.158
- RRIRARPPRLPRPRPRPQLPPRP — higher, 0.327
- RRIRWRPPRLPRPRPRPYWEPRP — within 0.2 log units, -0.0146
- RRIRQRPPRLPRPRPRPWWSPRP — within 0.2 log units, 0.0234
- RRIRQRPPRLPRPRPRPINLPRP — within 0.2 log units, -0.123
- RRIRMRPPRLPRPRPRPFVIPRP — within 0.2 log units, -0.197
- RRIRTRPPRLPRPRPRPYPNPRP — lower, -0.414
- RRIRIRPPRLPRPRPRPYSPPRP — within 0.2 log units, -0.0324
- RRIRMRPPRLPRPRPRPVFDPRP — higher, 0.184
- RRIRKRPPRLPRPRPRPHSEPRP — within 0.2 log units, -0.0169
- RRIRERPPRLPRPRPRPIGRPRP — higher, 0.0419
- RRIRCRPPRLPRPRPRPRQYPRP — within 0.2 log units, -0.15
- RRIRRRPPRLPRPRPRPFPTPRP — higher, 0.164
- RRIRERPPRLPRPRPRPWCGPRP — within 0.2 log units, -0.245
- RRIRVRPPRLPRPRPRPKQEPRP — higher, 0.239
- RRIRCRPPRLPRPRPRPYRMPRP — within 0.2 log units, -0.197
- RRIRLRPPRLPRPRPRPKGWPRP — higher, 0.342
- RRIRERPPRLPRPRPRPNLSPRP — within 0.2 log units, -0.15
- RRIRERPPRLPRPRPRPAQRPRP — higher, 0.324
- RRIRARPPRLPRPRPRPNLNPRP — within 0.2 log units, -0.0397
- RRIRCRPPRLPRPRPRPGHPPRP — within 0.2 log units, 0.00689
- RRIRHRPPRLPRPRPRPYMVPRP — within 0.2 log units, -0.0357
- RRIRRRPPRLPRPRPRPEWWPRP — within 0.2 log units, -0.0131
- RRIRHRPPRLPRPRPRPPDQPRP — higher, 0.594
- RRIRIRPPRLPRPRPRPKWIPRP — lower, -0.77
- RRIRDRPPRLPRPRPRPNAHPRP — within 0.2 log units, -0.0544
- RRIRYRPPRLPRPRPRPVNPPRP — within 0.2 log units, -0.0594
- RRIRWRPPRLPRPRPRPMKTPRP — within 0.2 log units, -0.0156
- RRIRRRPPRLPRPRPRPNKWPRP — within 0.2 log units, 0.0315
- RRIRVRPPRLPRPRPRPGSMPRP — within 0.2 log units, -0.00131
- RRIRCRPPRLPRPRPRPSEVPRP — within 0.2 log units, -0.328
- RRIRARPPRLPRPRPRPDMTPRP — higher, 0.723
- RRIRERPPRLPRPRPRPLAGPRP — within 0.2 log units, -0.113
- RRIRVRPPRLPRPRPRPGYYPRP — within 0.2 log units, -0.248
- RRIRCRPPRLPRPRPRPVWVPRP — higher, 0.195
- RRIRNRPPRLPRPRPRPEDPPRP — within 0.2 log units, 0.00956
- RRIRNRPPRLPRPRPRPANFPRP — within 0.2 log units, -0.193
